The source of these data is US20090036380A1, “Composition And Method For Brain Tumor Therapy” (Yeda Research and Development Co., Ltd., priority 2006, published 2009).

The subject of assay [1] is PC12 cells. Nature of the assay: Effect of pathway proteins and inhibitors on Karet-induced cell death in PC12 cells. The settings on record: co-electroporated with Karet into PC12, 12 hours. The class given is cell-based, rat.
The target of assay [2] is 27 amino acid residue juxtamembrane region of TrkA (Homo sapiens, UniProt P04629). Put plainly: In-vitro affinity co-precipitation with biotinylated TrkA juxtamembrane peptide. The conditions noted are these: streptavidin beads, recombinant protein, versus two control peptides. The class given is binding. The source says: FIG. 8a is a co-immunoprecipitation analysis depicting interaction of Karet PTB domain with a juxtamembrane region of TrkA. Biotinylated synthetic peptide corresponding to the TrkA sequence in the juxtamembrane and control peptide were immobilized on streptavidin beads and then used to precipitate recombinant Karet protein. Precipitates were washed, eluted and bound Karet was visualized by Western blot with anti-His antibody.
FIG. 8b is an in-vitro affinity co-precipitation Western blot depicting that the isolated N-terminal PTB domain of Karet specifically interacts with a […] residue juxtamembrane region of TrkA having the sequence Biotinylated synthetic peptides corresponding to a 27 amino acid residue juxtamembrane region of TrkA having the sequence […] (SEQ ID NO: 10), and two control peptides were immobilized on streptavidin beads, and then used to precipitate recombinant PTB domain-containing Karet(1-228) truncation mutant. Precipitates were washed, eluted and bound Karet(1-228) was visualized by Western blot with Karet antibody.

For the next assay, the system named is TrkA. Put plainly: Co-immunoprecipitation of HA-Karet constructs with TrkA. The settings on record: co-transfected Hek or NNR5 cells, anti-HA IP. The class given is binding. As to the method: FIG. 3c is a co-immunoprecipitation assay depicting co-immunoprecipitation of HA-Karet with TrkA in COS cells. Karet tagged with the HA epitope was immunoprecipitated with anti-HA antibody and the blot was incubated with anti-TrkA (RTA). In control experiments the HA-Karet was substituted with vector.
FIG. 3d is a co-immunoprecipitation assay depicting interaction of Karet and TrkA in NNR5 cells transfected with TrkA.
FIG. 3e is a co-immunoprecipitation assay depicting co-immunoprecipitation of HA-Karet with TricA in co-transfected NNR5 cells immunoprecipitated with anti-HA (Roche) and Western blot with the anti-TrkA antibody C14 (Santa Cruz).
FIGS. 4a-c are co-immunoprecipitation assay results depicting the influence of NGF treatment on TrkA-Karet interaction. FIG. 4a depicts that TrkA-Karet interaction occurred prior to NGF treatment and was enhanced after ligand stimulation for 10 minutes (10 m) or 2 hours (2 h). HA-Karet was electroporated into cell line PC12, and the cells were treated with 50 ng/ml NGF for the indicated time periods in order to activate p75 and TrkA. Karet tagged with the HA epitope was immunoprecipitated with anti-HA antibody, the precipitated proteins were separated electrophoretically, and gel blots were incubated with anti-TrkA antibody (RTA). […]

Assay [3] deals with PC12 cells. Nature of the assay: Viability / death of PC12 cells after transfection with Karet constructs (Live/dead kit, FACS, cell counting, Hoechst). The class given is cell-based, rat. The settings on record: PC12-necdin stable cells electroporated with Karet. Here is the method:
FIG. 5a is a bar-graph of FACS data depicting 50 percent death of PC12 cells overexpressing Karet. Shown is a FACS analysis of PC12 viability 15 hours after transfection with Ha-Karet or control vector using Live/dead kit (Molecular probes), T-test=0.003.
FIG. 5b is a series of fluorescence photomicrographs depicting death of PC12 cells caused by Karet overexpression. Shown is a live/dead kit analysis of PC12 cells overexpressing Ha-Karet (left panels) versus control vector-transfected cells (right panels). Live cell are stained in green, dead cells are stained in red. Upper panels each show red fluorescence only (left picture) and green fluorescence only (right picture) pairs, and lower panels each show combined red and green fluorescence (left picture) and light microscopy images (right picture) pairs. […]
FIG. 5e is a histogram depicting that Karet expression induces cell death of TrkA expressing cells, which is increased by NGF treatment and is decreased by necdin. […] Cells were counted and result presented as percent of control.
PC12 cells were transfected with Ha Karet, PTB, non PTB and their combinations. Cells were analyzed by FACS 18 hours after transfection using the dead/live kit. […]
The lower panel is a histogram depicting that Karet-mediated cell death correlates well with expression levels of the Karet protein. […] Cells were counted and the results were determined as percent of control. […]

Chain of 27 amino acid residue juxtamembrane region of TrkA (P04629 464-490 limits assumed): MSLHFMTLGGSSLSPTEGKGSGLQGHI

B1: p35: a baculovirus caspase-8 and caspase-10 inhibitor (protein, UniProt P08160 1-299, looked up)
Early 35 kDa protein: MCVIFPVEIDVSQTIIRDCQVDKQTRELVYINKIMNTQLTKPVLMMFNISGPIRSVTRKNNNLRDRIKSKVDEQFDQLERDYSDQMDGFHDSIKYFKDEHYSVSCQNGSVLKSKFAKILKSHDYTDKKSIEAYEKYCLPKLVDERNDYYVAVCVLKPGFENGSNQVLSFEYNPIGNKVIVPFAHEINDTGLYEYDVVAYVDSVQFDGEQFEEFVQSLILPSSFKNSEKVLYYNEASKNKSMIYKALEFTTESSWGKSEKYNWKIFCNGFIYDKKSKVLYVKLHNVTSALNKNVILNTIK
In the case of B1, the “effect on cell death induction by Karet” value with PC12 cells [1] is on record as “did not affect cell death induction”.

B2: Karet(1-228): N-terminal, PTB-domain-containing truncation mutant of mouse Karet, amino acid residues 1-228 (SEQ ID NO: 7) (protein, listed as Mus musculus)
chain: MEEEGKKGKKPGIVSPFKRVFLKGEKSRDKKAHEKVTERRPLHTVVLALPERVEPDRLLSDYIEKEVKYLGQLTSIPGYLNPSSRTEILHFIDKAKRSHQLPGHLTQEHDAVLSLSAYNVKLAWRDGEDIILRVPIHDIAAVSYVRDDAAHLVVLKTAQDPGISPSQSLCAESSRGLSAGSLSESAVGPVEACCLVIMATESKVAAEELCSLLSQVFQIVYTESTIDF
modifications: HA tag; N-terminal PTB-domain-containing, truncation mutant of the mouse Karet
In the case of B2, the “precipitation by immobilized TrkA peptide (SEQ ID NO: 10)” value in assay [2] was “precipitated by the TrkA peptide”. For the same molecule, the “co-immunoprecipitation / interaction with TrkA” value is given as “interacts with TrkA” with TrkA and “co-immunoprecipitated” in the assay on TrkA (listed as PTB domain alone).

B3: JIP1: a Jnk scaffold and inhibitor (protein, UniProt Q9UQF2 1-711, looked up)
C-Jun-amino-terminal …: MAERESGGLGGGAASPPAASPFLGLHIASPPNFRLTHDISLEEFEDEDLSEITDECGISLQCKDTLSLRPPRAGLLSAGGGGAGSRLQAEMLQMDLIDATGDTPGAEDDEEDDDEERAARRPGAGPPKAESGQEPASRGQGQSQGQSQGPGSGDTYRPKRPTTLNLFPQVPRSQDTLNNNSLGKKHSWQDRVSRSSSPLKTGEQTPPHEHICLSDELPPQSGPAPTTDRGTSTDSPCRRSTATQMAPPGGPPAAPPGGRGHSHRDRIHYQADVRLEATEEIYLTPVQRPPDAAEPTSAFLPPTESRMSVSSDPDPAAYPSTAGRPHPSISEEEEGFDCLSSPERAEPPGGGWRGSLGEPPPPPRASLSSDTSALSYDSVKYTLVVDEHAQLELVSLRPCFGDYSDESDSATVYDNCASVSSPYESAIGEEYEEAPRPQPPACLSEDSTPDEPDVHFSKKFLNVFMSGRSRSSSAESFGLFSCIINGEEQEQTHRAIFRFVPRHEDELELEVDDPLLVELQAEDYWYEAYNMRTGARGVFPAYYAIEVTKEPEHMAALAKNSDWVDQFRVKFLGSVQVPYHKGNDVLCAAMQKIATTRRLTVHFNPPSSCVLEISVRGVKIGVKADDSQEAKGNKCSHFFQLKNISFCGYHPKNNKYFGFITKHPADHRFACHVFVSEDSTKALAESVGRAFQQFYKQFVEYTCPTEDIYLE
With B3, the “effect on cell death induction by Karet” value with PC12 cells [1] was “did not affect cell death induction”.

B4: necdin: MAGE protein, interactor of the intracellular domain of p75 (protein)
chain: MSEQSKDLSDPNFAAEVPDCEMQDSDAVPVGIPPPASLAANLAGPPCAPEGPMAAQQASPPPEERIEDVDPKILQQAAEEGRAHQPQSPARPIPAPPAPAQLVQKAHELMWYVLVKDQKRMVLWFPDMVKEVMGSYKKWCRSILRRTSVILARVFGLHLRLTNLHTMEFALVKALSPEELDRVALNNRMPMTGLLLMILSLIYVKGRGAREGAVWNVLRILGLRPWKKHSTFGDVRKIITEEFVQQNYLKYQRVPHIEPPEYEFFWGSRANREITKMQIMEFLARVFKKDPQAWPSRYREALEQARALREANLAAQAPRSSVSED
As for B4, the “effect on the apoptotic effects of Karet” value in the assay on PC12 cells [3] is “attenuated somewhat the apoptotic effects of Karet”.
